The text below walks through data of patent publication US20180185450A1 (Sanofi, published 2018).

Test in all cases: cell-based or functional assay
Experiment [1] has as its target T1, human GLP-1 receptor (human, UniProt P43220 24-463).
The target in experiment [2] is T2, human glucagon receptor (human, UniProt P47871 26-477).
The target in experiment [3] is T1, human GLP-1 receptor. The source holds these as a separate data set.
In experiment [4] the target is T2, human glucagon receptor. The source holds these as a separate data set.

Where two headings read alike, the source gives them in different places. Numbered stars: 1 amine (or outer) side, 2 acyl side, 3 side chain; on linkers, the order of the positions; unused ones are H or OH. Square brackets hold non-standard residues; d marks the D form. Side chains are listed from the residue outwards. Ends that are not written are not given here. γGlu = O=C(O)[C@H](CCC(=O)[*:2])N[*:1]; X70 = not defined here; x53 = not defined here; Aib = CC(C)(N)C(=O)O

T2 sequence (P47871 26-477): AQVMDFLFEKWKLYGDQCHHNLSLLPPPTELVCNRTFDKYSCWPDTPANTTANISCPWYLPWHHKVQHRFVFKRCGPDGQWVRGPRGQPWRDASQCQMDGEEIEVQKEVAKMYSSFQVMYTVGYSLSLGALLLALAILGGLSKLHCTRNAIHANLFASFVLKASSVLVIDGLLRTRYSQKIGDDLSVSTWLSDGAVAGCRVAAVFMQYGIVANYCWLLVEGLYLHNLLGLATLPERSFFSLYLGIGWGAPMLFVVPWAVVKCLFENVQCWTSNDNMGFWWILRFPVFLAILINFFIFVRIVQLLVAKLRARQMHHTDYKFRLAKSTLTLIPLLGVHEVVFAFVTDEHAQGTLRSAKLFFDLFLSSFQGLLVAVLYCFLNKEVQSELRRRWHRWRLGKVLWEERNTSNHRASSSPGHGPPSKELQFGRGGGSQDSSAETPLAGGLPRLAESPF

For the molecule HXQGTFTSDLSKQLDEEAARLFIEWLKAGGPSSGAPPPS (Aib at 2; C-terminal NH2) [SEQ ID NO: 224], the “EC50 hGLP-1R (cAMP)” value with human GLP-1 receptor [1] amounted to 1.3 pM. In addition, the “EC50 hGlucagon-R (cAMP)” value in the experiment with human glucagon receptor [2] was found to be 2930 pM.

Take HXQGTFTSDLSKQLEEEAARLFIEWLKAGGPSSGAPPPS (Aib at 2; C-terminal NH2) [SEQ ID NO: 225]: in the experiment with human GLP-1 receptor [1], the “EC50 hGLP-1R (cAMP)” value is 0.7 pM. In addition, in the experiment with human glucagon receptor [2], the “EC50 hGlucagon-R (cAMP)” value came out at 2870 pM.

For the molecule HXQGTFTSDLSKQKDSRRAQDFIEWLKAGGPSSGAPPPS (dSer at 2; K(γE-x53) at 14; C-terminal NH2) [SEQ ID NO: 74], the “EC50 hGLP-1R (cAMP)” value with human GLP-1 receptor [1] and with human GLP-1 receptor [3] was 4.2 pM each time. The “EC50 hGlucagon-R (cAMP)” value with human glucagon receptor [2] and with human glucagon receptor [4] was 1.3 pM in each case.

Regarding HXQGTFTSDLSKQKESRRAQDFIEWLKAGGPSSGAPPPS (dSer at 2; K(γE-x53) at 14; C-terminal NH2) [SEQ ID NO: 4], the “EC50 hGLP-1R (cAMP)” value in the experiment with human GLP-1 receptor [1] and with human GLP-1 receptor [3] was 5 pM in each case. Besides, the “EC50 hGlucagon-R (cAMP)” value with human glucagon receptor [2] and in the experiment with human glucagon receptor [4] was 4 pM each time.

As to HXQGTFTSDLSKQKDSKAAQDFIEWLKAGGPSSGAPPPS (dSer at 2; K(γE-x53) at 14; C-terminal NH2) [SEQ ID NO: 30], the “EC50 hGLP-1R (cAMP)” value with human GLP-1 receptor [1] and in the experiment with human GLP-1 receptor [3] was 3.2 pM in each case. The “EC50 hGlucagon-R (cAMP)” value with human glucagon receptor [2] and in the experiment with human glucagon receptor [4] was 7 pM each time.

For HXQGTFTSDLSKQMESKAAQDFIEWLKAGGPSSGAPPPS (dSer at 2; C-terminal NH2) [SEQ ID NO: 189], in the experiment with human GLP-1 receptor [1], the “EC50 hGLP-1R (cAMP)” value was 5.6 pM. For the same molecule, the “EC50 hGlucagon-R (cAMP)” value in the experiment with human glucagon receptor [2] was found to be 1680 pM.

Take HXQGTFTSDLSKQKESRRAXDFIEWLKAGGPSSGAPPPS (dSer at 2; K(γE-x53) at 14; Aib at 20; C-terminal NH2) [SEQ ID NO: 75]: the “EC50 hGLP-1R (cAMP)” value in the experiment with human GLP-1 receptor [1] and with human GLP-1 receptor [3] was 11.1 pM each time. Also, the “EC50 hGlucagon-R (cAMP)” value in the experiment with human glucagon receptor [2] and with human glucagon receptor [4] was 12.5 pM in each case.

As to HXQGTFTSDLSKQKDSRRAQDFIEWLKRGGPSSGAPPPS (dSer at 2; K(γE-x53) at 14; C-terminal NH2) [SEQ ID NO: 125], the “EC50 hGLP-1R (cAMP)” value with human GLP-1 receptor [1] and with human GLP-1 receptor [3] was 31.4 pM in each case. For the same molecule, the “EC50 hGlucagon-R (cAMP)” value with human glucagon receptor [2] and with human glucagon receptor [4] was 6.9 pM each time.

Consider HXQGTFTSDLSKQMDSRRAQDFIEWLKAGGPSSGAPPPS (dSer at 2; C-terminal NH2) [SEQ ID NO: 188], for which, in the experiment with human GLP-1 receptor [1], the “EC50 hGLP-1R (cAMP)” value is 89.6 pM. Also, the “EC50 hGlucagon-R (cAMP)” value with human glucagon receptor [2] was 186 pM.

Take HXQGTFTSDLSKQKDSRRAQDFIEWLKKGGPSSGAPPPS (dSer at 2; K(γE-x53) at 14; C-terminal NH2) [SEQ ID NO: 84]: the “EC50 hGLP-1R (cAMP)” value in the experiment with human GLP-1 receptor [1] and with human GLP-1 receptor [3] was 8.1 pM throughout. Further, the “EC50 hGlucagon-R (cAMP)” value with human glucagon receptor [2] and with human glucagon receptor [4] was 4.3 pM each time.

With HXQGTFTSDLSKQMESRRAXDFIEWLKAGGPSSGAPPPS (dSer at 2; Aib at 20; C-terminal NH2) [SEQ ID NO: 190], the “EC50 hGLP-1R (cAMP)” value with human GLP-1 receptor [1] amounted to 21.3 pM. Also, the “EC50 hGlucagon-R (cAMP)” value with human glucagon receptor [2] came out at 1560 pM.

Consider HXQGTFTSDLSKQKDSRRAQDFIEWLKXGGPSSGAPPPS (dSer at 2; K(γE-x53) at 14; Aib at 28; C-terminal NH2) [SEQ ID NO: 78], for which the “EC50 hGLP-1R (cAMP)” value in the experiment with human GLP-1 receptor [1] and in the experiment with human GLP-1 receptor [3] was 17.8 pM each time. Moreover, the “EC50 hGlucagon-R (cAMP)” value in the experiment with human glucagon receptor [2] and with human glucagon receptor [4] was 1.6 pM each time.

As for HXQGTFTSDLSKQKESKAAQDFIEWLKAGGPSSGAPPPS (dSer at 2; K(γE-x53) at 14; C-terminal NH2) [SEQ ID NO: 24], the “EC50 hGLP-1R (cAMP)” value with human GLP-1 receptor [1] was 2 pM; with human GLP-1 receptor [3] it was 1.9 pM. In addition, the figures for the “EC50 hGlucagon-R (cAMP)” value with human glucagon receptor [2] and in the experiment with human glucagon receptor [4] were 9.8 pM and 9.4 pM, respectively.

As for H[Aib]QGTFTSDLSKQK([γGlu-X70])EEEAARLFIEWLKAGGPSSGAPPPS-NH2 (reading uncertain) [SEQ ID NO: 215], the “EC50 hGLP-1R (cAMP)” value in the experiment with human GLP-1 receptor [1] and with human GLP-1 receptor [3] was 5.3 pM each time. Further, the “EC50 hGlucagon-R (cAMP)” value with human glucagon receptor [2] and in the experiment with human glucagon receptor [4] was 42.6 pM in each case.

For the molecule H[Aib]QGTFTSDLSKQK([γGlu-x53])DSRRAQDFIEWLKNGGPSSGAPPPS-NH2 (reading uncertain) [SEQ ID NO: 115], the “EC50 hGLP-1R (cAMP)” value with human GLP-1 receptor [1] and with human GLP-1 receptor [3] was 2.4 pM in each case. The “EC50 hGlucagon-R (cAMP)” value in the experiment with human glucagon receptor [2] and with human glucagon receptor [4] was 1.9 pM throughout.

As to H[Aib]QGTFTSDLSKQK([γGlu-X70])DEEAARLFIEWLKAGGPSSGAPPPS-NH2 (reading uncertain) [SEQ ID NO: 216], the “EC50 hGLP-1R (cAMP)” value with human GLP-1 receptor [1] and with human GLP-1 receptor [3] was 4.7 pM in each case. The “EC50 hGlucagon-R (cAMP)” value with human glucagon receptor [2] and with human glucagon receptor [4] was 19.5 pM throughout.
